Test results from patent publication US20100178296A1 (SCHERING, published 2010).
Substitutions are numbered along the chain they refer to.

T1: wild-type human CD200RLa extracellular domain fused to the Fc region of human IgG1 (human, UniProt Q6Q8B3 24-239)
T1 construct: also called wild-type human CD200RLa fusion protein; not shown: Fc region of human IgG1
T1 sequence: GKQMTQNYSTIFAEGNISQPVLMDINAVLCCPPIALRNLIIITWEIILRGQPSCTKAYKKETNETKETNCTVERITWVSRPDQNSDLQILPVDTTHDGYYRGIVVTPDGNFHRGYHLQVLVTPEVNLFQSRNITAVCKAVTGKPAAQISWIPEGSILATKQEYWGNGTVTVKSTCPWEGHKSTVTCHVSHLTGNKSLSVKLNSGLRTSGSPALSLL

T2: CYS mutated human CD200RLa extracellular domain fused to the Fc region of human IgG1 (human, UniProt Q6Q8B3 24-239)
T2 construct: also called CYS mutated human CD200RLa fusion protein; Human CD200RLa-Cys-mut; not shown: Fc region of human IgG1
T2 chain: T1 sequence with G102C, L157C

B1: DX182, rat anti-human inhibitory CD200R monoclonal antibody (antibody, V domains shown)
VL: EVQMTQSPSTLTASPGESVSINCKASKNIRSYLAWYQQKPGKPNKLLIYSGSTLHSGTPSRFSGSGFGTDFTLTIRNLEPEDFGLYYCQQHHEYPLTFGSGTKLEIKR
VH: EIQLQESGPGLVKPSQSLSLTCSVTGYTITSGYDWSWIRKFPGNKMEWMGYINYGGSTNYKPSLGSRISITRDTSKNQFFLQLNSVSPEDTATYYCAKYNEYKSYIYDWYFDFWGPGTMVTVSS
notes: Rat hybridoma antibody; Rat IgG2a served as its isotype control; also called rat DX182; anti-huCD200R
B2: CYS mutated human CD200RLa, full length, on Ba/F3 cells expressing human DAP12 (receptor)
chain: GKQMTQNYSTIFAEGNISQPVLMDINAVLCCPPIALRNLIIITWEIILRGQPSCTKAYKKETNETKETNCTVERITWVSRPDQNSDLQILPVDTTHDGYYRCIVVTPDGNFHRGYHLQVLVTPEVNLFQSRNITAVCKAVTGKPAAQISWIPEGSICATKQEYWGNGTVTVKSTCPWEGHKSTVTCHVSHLTGNKSLSVKLNSGLRTSGSPALSLLIILYVKLSLFVVILVTTGFVFFQRINHVRKVL
notes: also called Human CD200RLa-Cys-mut; CYS mutated form of the receptor

How the values were obtained:
[1] = target: T1, wild-type human CD200RLa extracellular …; experiment: indirect ELISA on the fusion protein
[2] = target: T2, CYS mutated human CD200RLa …; experiment: indirect ELISA on the fusion protein
[3] = target: B2; experiment: flow cytometry on Ba/F3 transfectants
[4] = target: T3, human DAP12 with a FLAG epitope at the N terminus, in Ba/F3 cells (human, UniProt O43914 22-113); experiment: surface appearance of FLAG-DAP12 on Ba/F3 transfectants, flow cytometry with anti-FLAG M2
T3 construct: whole, on cells; also called FLAG-tagged DAP12
T3 sequence (O43914 22-113): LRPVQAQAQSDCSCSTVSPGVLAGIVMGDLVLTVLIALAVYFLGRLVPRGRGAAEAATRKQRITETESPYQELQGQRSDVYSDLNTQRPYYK

Binder	binding result [1]	binding result [2]	binding result [3]	binding result [4]
B1	no binding	no binding	no binding	–
B2	–	–	–	binds
